T1: Khc motor domain (Khc 1-365) (Drosophila, UniProt P17210 1-365)
T1 construct: Kinesin heavy chain (Khc), Drosophila, amino acids 1-365 (motor domain); GST removal with 3C protease is stated for NMR; for the pull-down the prey is printed as Khc 1–365 without GST; source: E. coli BL21-CodonPlus(DE3)-RIL, purified (GSTrap, SEC)
T1 sequence (looked up): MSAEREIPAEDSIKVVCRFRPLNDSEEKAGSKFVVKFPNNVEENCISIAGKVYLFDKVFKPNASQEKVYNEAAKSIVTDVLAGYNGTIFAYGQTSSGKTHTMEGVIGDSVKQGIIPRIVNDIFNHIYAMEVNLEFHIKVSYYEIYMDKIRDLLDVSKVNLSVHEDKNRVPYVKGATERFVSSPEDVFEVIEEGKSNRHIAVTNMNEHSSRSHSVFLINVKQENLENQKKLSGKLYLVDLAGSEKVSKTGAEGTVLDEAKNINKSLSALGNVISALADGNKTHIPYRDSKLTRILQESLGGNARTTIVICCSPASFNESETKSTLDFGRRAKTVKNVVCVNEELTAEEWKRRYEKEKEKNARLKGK


Key:
[1] = biological target: T1, Khc motor domain (Khc 1-365); test: pull-down; GST-Khc 855–975 (5 or 10 µM) as bait on glutathione Sepharose, 50 µM Khc 1–365 as prey, Tm1 1–335 at 5 to 15 µM; GF150 buffer, 4 °C; conditions: both partners purified
[2] = biological target: T1, Khc motor domain (Khc 1-365); test: NMR titration; 1H-15N HSQC of 50 µM 15N-labeled Khc 855–975 at 298 K, 25 mM NaPO4 pH 6.5, 150 mM NaCl; unlabeled partners added, with or without U10 RNA; conditions: both partners purified

binding result [1] | binding result [2] | Binder
binds |  | GST-Khc 855-975 (domain or fragment) not shown
 | binds | Khc tail (Khc 855-975) (domain or fragment, 15N-labeled (13C,15N for assignment) in the NMR experiments; used unlabeled in microtubule pelleting; also called tail domain) not shown

From article PMC10948360, “Tropomyosin 1-I/C coordinates kinesin-1 and dynein motors during oskar mRNA transport” (Nature Structural & Molecular Biology, 2024)
